Data published in patent US20170088624A1 (Janssen / Centocor, published 2017).
Numbering of substitutions follows the chain as printed.

T1: Macaca fascicularis (cyno) CD40 (cCD40) on cells (Macaca fascicularis (cynomolgus), UniProt P25942 21-277 (human entry))
T1 construct: CD40 on cyno mature DCs
T1 chain: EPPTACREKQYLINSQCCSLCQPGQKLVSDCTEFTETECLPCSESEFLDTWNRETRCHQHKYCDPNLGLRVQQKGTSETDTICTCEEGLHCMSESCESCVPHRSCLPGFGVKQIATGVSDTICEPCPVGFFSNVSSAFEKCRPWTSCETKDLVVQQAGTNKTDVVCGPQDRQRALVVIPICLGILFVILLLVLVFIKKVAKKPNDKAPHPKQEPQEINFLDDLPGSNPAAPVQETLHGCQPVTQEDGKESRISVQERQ

T2: cyno CD40 (SPR analyte) (Macaca fascicularis (cynomolgus), UniProt P25942 21-193 (human entry), limits assumed)
T2 construct: also called cCD40-ECD
T2 chain: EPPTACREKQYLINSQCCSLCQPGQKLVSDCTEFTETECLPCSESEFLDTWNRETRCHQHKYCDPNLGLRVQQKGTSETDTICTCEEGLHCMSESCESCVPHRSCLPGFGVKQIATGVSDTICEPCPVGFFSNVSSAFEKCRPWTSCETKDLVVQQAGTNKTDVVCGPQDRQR

B1: C40M102 (antibody, human IgG1, lambda, V domains shown)
VH: EVQLVESGGGLVQPGGSLRLSCAASGFTFSSYAMSWVRQAPGKGLEWVSIINNNVGRTYYADSVKGRFTISRDNSKNTLYLQMNSLRAEDTAVYYCAKEGGDYYYYGMDVWGQGTTVTVSS
VL: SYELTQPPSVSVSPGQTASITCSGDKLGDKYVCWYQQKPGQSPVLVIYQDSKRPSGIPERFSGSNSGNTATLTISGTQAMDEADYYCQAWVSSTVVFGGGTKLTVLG
notes: Variant of C40M18 (VH C40H48, VL C40L70); cloned as IgG1
B2: C40M103 (antibody, human IgG1, lambda, V domains shown)
VH: B1 VH
VL: SYELTQPPSVSVSPGQTASITCSGDKLGDKYVSWYQQKPGQSPVLVIYQDSKRPSGIPERFSGSNSGNTATLTISGTQAMDEADYYCQAWVSSTVVFGGGTKLTVLG
notes: Variant of C40M18 (VH C40H48, VL C40L69; LCDR1 cysteine mutated); cloned as IgG1
B3: C40M18 (antibody, human IgG1, lambda, V domains shown)
VH: B1 VH
VL: B2 VL with S33C, L45V, D84Y
notes: Full-length IgG1/lambda; from OmniRat (OMT); VH C40H48, VL C40L64
B4: C40M104 (antibody, human IgG1, lambda, V domains shown)
VH: B1 VH
VL: B2 VL with L45V, D84Y
notes: Variant of C40M18 (VH C40H48, VL C40L68; LCDR1 cysteine mutated); cloned as IgG1

How the values were obtained:
[1] = biological target: T3, Full length human CD40 (huCD40) on cells (human, UniProt P25942 21-277); assay: cell-based or functional assay
[2] = biological target: T3, Full length human CD40 (huCD40) on cells; assay: flow cytometry, human DCs
[3] = biological target: T3, Full length human CD40 (huCD40) on cells; assay: flow cytometry, human B cells
[4] = biological target: T3, Full length human CD40 (huCD40) on cells; assay: flow cytometry, HEK-Blue CD40L cells
[5] = biological target: T3, Full length human CD40 (huCD40) on cells; assay: cell-based or functional assay; remark: listed apart in the source
[6] = biological target: T3, Full length human CD40 (huCD40) on cells; assay: cell-based or functional assay; remark: listed apart in the source
[7] = biological target: T3, Full length human CD40 (huCD40) on cells; assay: flow cytometry, Raji cells
[8] = biological target: T1, Macaca fascicularis (cyno) CD40 (cCD40) …; assay: flow cytometry, cyno mature DCs
Description: (§1) Human monocytes were isolated from either frozen/fresh PBMC using CD14 negative isolation kit per manufacturer's protocol (MACS Miltenyi). Cyno monocytes were isolated from fresh PBMC using CD14 positive isolation kit per manufacturer's protocol (MACS Miltenyi). To generate DCs, monocytes were cultured for 5 days in complete media RPMI (Invitrogen) in the presence of 100 ng/ml human GM-CSF and human IL-4 (Peprotech) and media was replenished every 2 days. On day 5, DCs were stimulated with 100 ng/ml LPS (Sigma) for 24 hours. Cells were then stained with each of the tested CD40 antibody at different concentration in flow cytometry buffer (PBS+1% FBS; BD Bioscience) in 100 μl volume for 30 minutes on ice followed with two washes with flow buffer. Cells were then stained for additional 30 minutes on ice with APC-conjugated anti human IgG (Jackson ImmunoResearch) at the recommended dilution 1:100 and washed twice with flow buffer. Cells were analyzed for percent positive and Mean Fluorescence Intensity (MFI) to determine the antibody binding using Fortessa (BD Bioscience).
(§2) The experiments were conducted using assays described above. 20 antibodies were characterized further based on their binding to human DCs, cyno DCs, Raji cells and HEK-Blue™ CD40L cells.

[9] = biological target: T3, Full length human CD40 (huCD40) on cells; assay: flow cytometry, human mature DCs
Description: as §1, §2

[10] = biological target: T3, Full length human CD40 (huCD40) on cells; assay: flow cytometry, HEK-Blue CD40L cells; remark: listed apart in the source
human CD40 (SPR analyte) = biological target: T4, human CD40 (SPR analyte) (human, UniProt P25942 21-193); assay: SPR ProteOn XPR36, mAb captured by anti-human IgG Fc, CD40 as analyte, 25 C
T4 construct: also called huCD40-ECD
Description: (§3) Affinity measurements were performed using Surface Plasmon Resonance (SPR) using a ProteOn XPR36 system (BioRad). […] Approximately 5000 RU (response units) of mAbs were immobilized. The kinetic experiments were performed at 25° C. in running buffer (DPBS+0.01% P20+100 μg/ml BSA). To perform kinetic experiments, 200 RU of mAbs were captured followed by injections of analytes (human or cyno CD40) at 5 concentrations (in a 4-fold serial dilution). The association phase was monitored for 3 minutes at 50 μL/min, then followed by 15 minutes of buffer flow (dissociation phase). The chip surface was regenerated with two 18 second pulses of 100 mM H₃PO₄ (Sigma, Cat#7961) at 100 μL/min.
(§4) The collected data were processed using ProteOn Manager software. First, the data was corrected for background using inter-spots. Then, double reference subtraction of the data was performed by using the buffer injection for analyte injections. The kinetic analysis of the data was performed using a Langmuir 1:1 binding model. The result for each mAb was reported in the format of Ka (On-rate), Kd (Off-rate) and KD (equilibrium dissociation constant).
The parameters reported in this table were obtained from a 1:1 Langmuir binding model for all samples. Affinity, KD=kd/ka.

cyno CD40 (SPR analyte) = biological target: T2, cyno CD40 (SPR analyte); assay: SPR ProteOn XPR36, mAb captured by anti-human IgG Fc, cyno CD40 as analyte, 25 C
Description: as §3, §4

T3 sequence (P25942 21-277): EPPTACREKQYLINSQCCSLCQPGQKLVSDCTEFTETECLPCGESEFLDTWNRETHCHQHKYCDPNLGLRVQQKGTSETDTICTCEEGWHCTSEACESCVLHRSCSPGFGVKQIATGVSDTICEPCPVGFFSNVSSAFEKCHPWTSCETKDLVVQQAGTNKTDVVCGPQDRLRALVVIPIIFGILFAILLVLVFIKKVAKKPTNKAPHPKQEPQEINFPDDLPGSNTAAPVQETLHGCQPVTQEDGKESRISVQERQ

Row | Binder | EC50, Human B cells (CD83) [1] [µg/mL] | EC50, Human DC (HLA-DR) [1] [µg/mL] | EC50, agonistic activity on HEK-Blue™ CD40L cells (NF-κB/SEAP) [1] [µg/mL] | EC50 [2] [µg/mL] | EC50 [3] [µg/mL] | EC50 [4] [µg/mL] | other results
1 | B1 | 0.0239 | 0.367 | 0.0751 | 0.438 | 0.159 | 0.162 | –
2 | B2 | 0.00479 | 0.388 | 0.00274 | 0.143 | 0.075 | 0.112 | –
3 | B3 | 0.0226 | 0.166 | 0.0696 | 0.267 | 0.11 | 0.15 | B cells EC50, CD23 surface expression, with cross-linker [5]: 0.306 µg/mL; B cells EC50, CD80 surface expression, with cross-linker [5]: 0.0481 µg/mL; B cells EC50, CD83 surface expression, with cross-linker [5]: 0.0624 µg/mL; B cells EC50, CD86 surface expression, with cross-linker [5]: 0.00873 µg/mL; B cells EC50, HLA-DR surface expression, with cross-linker [5]: 0.0239 µg/mL; DC EC50, CD80 surface expression, with cross-linker [6]: 0.0523 µg/mL; DC EC50, CD83 surface expression, with cross-linker [6]: 0.0478 µg/mL; DC EC50, CD86 surface expression, with cross-linker [6]: 0.0302 µg/mL; DC EC50, HLA-DR surface expression, with cross-linker [6]: 0.0105 µg/mL; EC50 [7]: 0.073 µg/mL; EC50 [8]: 0.0389 µg/mL; EC50 [9]: 0.352 µg/mL; EC50 [10]: 0.126 µg/mL; Kd (human CD40 (SPR analyte)): 0.151 nM; koff (human CD40 (SPR analyte)): 0.000162 s⁻¹; kon (human CD40 (SPR analyte)): 1.07e+06 M⁻¹ s⁻¹; Kd (cyno CD40 (SPR analyte)): 0.0712 nM; koff (cyno CD40 (SPR analyte)): 9.41e-05 s⁻¹; kon (cyno CD40 (SPR analyte)): 1.32e+06 M⁻¹ s⁻¹
4 | B4 | 0.0167 | 0.166 | 0.0308 | 0.253 | 0.11 | 0.177 | –
